Measurements taken from the DeepSol protein solubility set.

Assay: soluble on expression in E. coli; label from the status in PepcDB or PDB records

Sequence	soluble on expression in E. coli
MKEANLLIDLRGEPGINCNGFCKFCYFRKVNKNNPQPFGCRYCQFTVGCDYCMYSVREINGDFIPLPFALMELQSSLLFKRYSKVNLTAGGDVSCYPQLEELCKAINNIGLKIHLGYTSGKGFDNVEIAKNLVDYGVDEVTFSVFSTNPKLRKEWMNDKNAETALKCLRYFCENCEVHCAIIVIPGVNDGEELKKTVSDLVDWGANAVILMRFANSEEQGLILGNAPLIEGIKPHSVEEFKNIVDEIHNEFGDYIRVTGTPLHDPVAGTPFALAKEENSHILERLKDKINGEATIITGNVAYPFLKKIFDETSVNVVKVNKDIADLITAKDLEKLDLKDVKETVFIPPKAFVHDRVAEEILRRDGVDRIVVRGVEQLTLDGEVSGIYTREEALKFEIEAFEELIGMINFFGMKKQ	not soluble
MKEEKLVTLAIHSYEKAQILKSLLETEGIEAYLHNVNQIQPVISAGVRVRIKETDLPRALSIIEDNKWDQEDPKKRAKNTEEYVLIPVDFSEYTMKICELGFNFAARRGLRVVLMHVYISPFFSTPLTVGDTAVFQLSNEVSLRKEYQRVQR	not soluble
MKEENVGDFTLHYGVFEEVEPEELRNLADMLRQRTKKDVVFIASRKGDKINFVIGVSKEISDKVNAKEVIREVGKVLKGGGGGRADLAQGGGKAPDKFPEAVKLLKEILSG	soluble
MKEKIPFYNEKEFHYMMKKTKKGTFSGWYIINPENNSVEFSGSFNRQFKLNKPVIPVNTEYVTRKEFNEYKDSNDQRLTKIENKVDKLEIKVDKLEKKVDKLEVKVDKLVETVNAQGEDLNNFKVEVRGTLQSQGETLQLILQTLQGMSKRLDSVEGRLDSMDGRLDSMETRLDKIDPLKLEHHHHHH	not soluble
MKEKKKEIEKLLARPDLTPEQMKNYGMEYAKIEEIENITNRIKETQEFIELLREEGENELEIEKYEKELDQLYQELLFLLSPEASDKAIVEIRPGTGGEEAALFARDLFRMYTRYAERKGWNLEVAEIHETDLGGIREVVFFVKGKNAYGILKYESGVHRVQRVPVTESGGRIHTSTATVAVLPEIEEKDIEIRPEDLKIETFRASGHGGQYVNKTESAVRITHLPTGIVVSCQNERSQYQNKQTALRILRARLYQLQKEQKEREISQKRKSQIGTGERSEKIRTYNFPQNRVTDHRINYTSYRLQEILDGDLDEIISKLIEHDIENNLEEVLGIGASVEEK	soluble
MKEKYRHSLKARFFLKDNFLKSEPVFWFHACSYGEVKSLEPIIHALKEPILISVTTNTGFELAAQTYQHSKHIEVRYLPFETLLFAWKKNLKRLKTLVVTEAELWFNVFDTAQKLGAKTMLINARISVRSYPKYQRFSFFYALLFKRIDLILAQSKEDKKRLLNLGAKKVVDFLNIKRFSKPLEHHHHHH	not soluble
MKESNSRREFLSQSGKMVTAAALFGTSVPLAHAAVAGTLNCEANNTMKITDPHYYLDNVLLETGFDYENGVAVQTRTARQTVEIQDGKIVALRENKLHPDATLPHYDAGGKLMLPTTRDMHIHLDKTFYGGPWRSLNRPAGTTIQDMIKLEQKMLPELQPYTQERAEKLIDLLQSKGTTIARSHCNIEPVSGLKNLQNLQAVLARRQAGFECEIVAFPQHGLLLSKSEPLMREAMQAGAHYVGGLDPTSVDGAMEKSLDTMFQIALDYDKGVDIHLHETTPAGVAAINYMVETVEKTPQLKGKLTISHAFALATLNEQQVDELANRMVVQQISIASTVPIGTLHMPLKQLHDKGVKVMTGTDSVIDHWSPYGLGDMLEKANLYAQLYIRPNEQNLSRSLFLATGDVLPLNEKGERVWPKAQDDASFVLVDASCSAEAVARISPRTATFHKGQLVWGSVAG	soluble
MKETEILNRAYNYMCTYHKDDATGHDIAHINRVLRLATYIAEQEQSQHMLTIQLASLLHDTVDSKLTNHEKALTKLKSFLKDLQLPKEQQQHILHIIKHISYRHGQNNEVSLTLEGQIVRDADRLDAIGAIGIARTFQFAGHFNEPMWVEHSTKHITETDDAHYDQWSPSAIKHFYEKLLKLKSLMHTETAKQLAAQRHQYMENFINQFFEEWYFLEHHHHHH	soluble
MKEYLTRSNISYFSIGSGTPIIFLHGLSLDKQSTCLFFEPLSNVGQYQRIYLDLPGMGNSDPISPSTSDNVLETLIEAIEEIIGARRFILYGHSYGGYLAQAIAFHLKDQTLGVFLTCPVITADHSKRLTGKHINILEEDINPVENKEYFADFLSMNVIINNQAWHDYQNLIIPGLQKEDKTFIDQLQNNYSFTFEEKLKNINYQFPFKIMVGRNDQVVGYQEQLKLINHNENGEIVLLNRTGHNLMIDQREAVGFHFDLFLDELNSNN	soluble
MKFGKTIAVVLASSVLLAGCTTDKKEIKAYLKQVDKIKDDEEPIKTVGKKIAELDEKKKKLTEDVNSKDTAVRGKAVKDLIKNADDRLKEFEKEEDAIKKSEQDFKKAKSHVDNIDNDVKRKEVKQLDDVLKEKYKLHSDYAKAYKKAVNSEKTLFKYLNQNDATQQGVNEKSKAIEQNYKKLKEVSDKYTKVLNKVGKEKQDVDQFK	soluble
MKFKSRVQMLNYVIGKKPDIMKTVDRRAEKEGVTDDNRLLDYKLLVISVLDAEAVYDEDRPIEEKKFSTSQEVDKYLETRFKEHMDSAWKEMFNK	not soluble
MKGEGVIVGILNKNFSLSKGDLDVVSLGEILVDMISTEEVNSLSQSREYTRHFGGSPANIAVNLSRLGKKVALISRLGADAFGNYLLDVLKGEQIITDGIQQDKERRTTIVYVSKSTRTPDWLPYREADMYLQEDDIIFELIKRSKVFHLSTFILSRKPARDTAIKAFNYAREQGKIVCFDPCYRKVLWPEGDDGAGVVEEIISRADFVKPSLDDARHLFGPDSPENYVKRYLELGVKAVILTLGEEGVIASDGEEIIRIPAFSEDAVDVTGAGDAFWSGFICGLLDGYTVKRSIKLGNGVAAFKIRGVGALSPVPSKEDIIKEYNI	soluble
MKGRWAKYVATGVMLAMLAACSSKPTDRGQQYKDGKFTQPFSLVNQPDAVGAPINAGDFAEQVDQIRSASPRLYTNQSNVYNAVQNWLRSGGDTRTMRQFGIDAWQMEGTDNYGNVQFTGYYTPVVQARHTRQGAFQYPIYSMPPKRGRLPSRAQIYAGALSDKYILAWSNSLMDNFIMDVQGSGYIDFGDGSPLNFFSYAGKNGWPYRSIGKVLIDRGEVKKEDMSMQAIREWGEKHSEAEVRELLEQNPSFVFFKPQSFAPVKGASAVPLIGRASVASDRSIIPPGTTLLAEVPLLDNNGKFSGQYELRLMVALDVGGAIKGQHFDIYQGIGPDAGHRAGWYNHYGRVWVLKSAPGAGNVFSG	soluble
MKHFRKELWFETRQRRQFINITPTVRECLRESGIREGLLLCNAMHITASVFINDDESGLHHDFEVWLEGLAPEKPYDRYRHNGYEDNADAHLKRTVMGREVVVAVTAGELDLGPWEQIFYGEFDGKRRKRVLIKIIGELEHHHHHH	not soluble
MKHHHHHPMVPSYDSFDSEDYPAALPNHKPKGTFKDYVRDRADLNKDKPVIPAAALAGYTGSGPIQLWQFLLELLTDKSSQSFISWTGDGWEFKLSDPDEVARRWGKRKNKPKMNYEKLSRGLRYYYDKNIIHKTAGKRYVYRFVSDLQSLLGYTPEELHAMLDVKPDADE	soluble
MKHSHEEIRKIIPEMRRVQQIHFIGIGGAGMSGIAEILLNEGYQISGSDIADGVVTQRLAQAGAKIYIGHAEEHIEGASVVVVSSAIKDDNPELVTSKQKRIPVIQRAQMLAEIMRFRHGIAVAGTHGKTTTTAMISMIYTQAKLDPTFVNGGLVKSAGKNAHLGASRYLIAEADESDASFLHLQPMVSVVTNMEPDHMDTYEGDFEKMKATYVKFLHNLPFYGLAVMCADDPVLMELVPKVGRQVITYGFSEQADYRIEDYEQTGFQGHYTVICPNNERINVLLNVPGKHNALNATAALAVAKEEGIANEAILEALADFQGAGRRFDQLGEFIRPNGKVRLVDDYGHHPTEVGVTIKAAREGWGDKRIVMIFQPHRYSRTRDLFDDFVQVLSQVDALIMLDVYAAGEAPIVGADSKSLCRSIRNLGKVDPILVSDTSQLGDVLDQIIQDGDLILAQGAGSVSKISRGLAESWKN	soluble
MKIAGLKQLNTALKEAASGGFSRQASRWLEECGQDFLEIVQSELISTQTIDTEKLLSSFEKGAEDNLWIVQSGGLSLEVGTQLDYASFLNDGHWTSKQDVRWVPGRFQGSRFIYDPAASTGMALKRKWIPGTGYWDHALLLYEQLFEKSLESKLRQWLKKL	not soluble
MKIALINENSQASKNHIIYDSLKEATDKKGYQLFNYGMRGEEGESQLTYVQNGLMAAILLNTKAVDFVVTGCGTGVGAMLALNSFPGVVCGLAVDPTDAYLYSQINGGNALSIPYAKGFGWGAELTLKLMFERLFAEEMGGGYPRERVIPEQRNARILNEVKQITHNDLMTILKIIDQDFLKDTISGKYFQEYFFENCQDDEVAAYLKEVLA	not soluble
MKIAYLGPKGSFSHHVVQTAFPHEELQAFANITDVIKAYEQGLVNYSVVPVENSIEGSVHETLDYLFHQAHIQAVAEIVQPIHQQLMVVPGHTKIEKIFSHPQALAQGKKFIDEQYPEAQIEVTASTAYAARFISEHPDQPFAAVAPRSSAEEYGLELIAEDIQEMEANFTRFWVLGAEKPSIPLQAQTEKMSLALTLPDNLPGALYKALSTFAWRGIDLTKIESCPLKTALGEYFFIIDVDYTDKDLVHFAQKELEAIGIQYKILGAYPIYPISDHGKERR	soluble
MKIGIIGAMQQEVAILKDLIEDVQEVNQAGCTFYSGQIQGVDVVLLQSGIGKVSAALGTALLISQYAPDVVINTGSAGGFDASLNVGDVVISSEVRHHDADVTAFGYEIGQMAGQPAAFKADEKLMTVAEQALAQLPNTHAVRGLICTGDAFVCTAERQQFIRQHFPSVVAVEMEASAIAQTCHQFKVPFVVVRAISDVADKESPLSFEEFLPLAAKSSSAMVLKMVELLK	soluble
MKIIILHGLYMHGLVMQPLSQKLRKLGYETQVLSYNTVAIDESSLFDSIDHSLNPLTANVLVGHSLGGLMIKRYLANRKPTTSLISHVVAIGSPLKGASIVGRIQDLGLGAILGNSPHHGLNKHHDAWAFPQKLGSIAGTVPIGARPLLIRNDNTMSDGTVTVEETRLDGMQDHIEVKQTHTSLIYNTFVPQQIDHFIRTDYFCR	not soluble
MKIKACIFDMDGTLVNSIMDIAFSMNSALSNLGYSKIELSKFNALVGRGFNKFVIDTLKLLSLEHDNPNLQEKLYKEFVKEYNKNLSFQTKPYENIKPLLETMNKLNIPIGILSNKNHEELINLVKNIFGNILFFEIRGYSKNFPPKPDPENALDMILELNAQKEEIAYIGDSDVDMLTALNAGFMPIGVSWGFRSVQELKESGAKHIIHNPLELLDLIK	not soluble
MKIKSIRKAVLLLALLTSTSFAAGKNVNVEFRKGHSSAQYSGEIKGYDYDTYTFYAKKGQKVHVSISNEGADTYLFGPGIDDSVDLSRYSPELDSHGQYSLPASGKYELRVLQTRNDARKNKTKKYNVDIQIK	soluble
MKILVYGINYSPELTGIGKYTGEMVEWLAAQGHEVRVITAPPYYPQWQVGENYSAWRYKREEGAATVWRCPLYVPKQPSTLKRLLHLGSFAVSSFFPLMAQRRWKPDRIIGVVPTLFCAPGMRLLAKLSGARTVLHIQDYEVDAMLGLGLAGKGKGGKVAQLATAFERSGLHNVDNVSTISRSMMNKAIEKGVAAENVIFFPNWSEIARFQHVADADVDALRNQLDLPDNKKIILYSGNIGEKQGLENVIEAADRLRDEPLIFAIVGQGGGKARLEKMAQQRGLRNMQFFPLQSYDALPALLKMGDCHLVVQKRGAADAVLPSKLTNILAVGGNAVITAEAYTELGQLCETFPGIAVCVEPESVEALVAGIRQALLLPKHNTVAREYAERTLDKENVLRQFINDIRG	soluble
